Results from publication PMC4267653, “DNA cleavage by CgII and NgoAVII requires interaction between N- and R-proteins and extensive nucleotide hydrolysis” (Nucleic Acids Research, 2014).

Assays:
[1] = molecular target: N.CglI (Corynebacterium glutamicum ATCC 13032); assay: SAXS; full-length R- and N-proteins in 20 mM Tris-HCl pH 8.0, 400 mM KCl, 0.1 mM EDTA, 1 mM DTT; molecular weight from scattering data (MoW)
[2] = molecular target: N.CglI (Corynebacterium glutamicum ATCC 13032); assay: SEC; gel filtration of single proteins and domains, Superdex 200 HR, room temperature, 20 mM Tris-HCl pH 8.0, 300 mM NaCl, 5 mM 2-mercaptoethanol; 20 μM (monomer) loading concentration
[3] = molecular target: R.CglI (Corynebacterium glutamicum ATCC 13032)
[4] = molecular target: N.CglI isolated Z1 domain (Corynebacterium glutamicum ATCC 13032); assay: SEC; gel filtration of single proteins and domains, Superdex 200 HR, room temperature, 20 mM Tris-HCl pH 8.0, 300 mM NaCl, 5 mM 2-mercaptoethanol; 20 μM (monomer) loading concentration
[5] = tested on: R.CglI in RN.CglI complex;N.CglI (Corynebacterium glutamicum ATCC 13032;Corynebacterium glutamicum ATCC 13032); assay: EMSA; conditions: EMSA: 1 nM 33P-DNA, 1-500 nM protein monomer, 40 mM Tris-acetate pH 8.3 (25°C), 0.1 mM EDTA (NgoAVII: 5 mM Ca-acetate instead), 0.1 mg/ml BSA, 10% glycerol …
[6] = tested on: R.CglI (Corynebacterium glutamicum ATCC 13032); assay: EMSA; conditions: no metal, 0.1 mM EDTA; EMSA: 1 nM 33P-DNA, 1-500 nM protein monomer, 40 mM Tris-acetate pH 8.3 (25°C), 0.1 mM EDTA (NgoAVII: 5 mM Ca-acetate instead), 0.1 mg/ml BSA, 10% glycerol …
[7] = molecular target: N.CglI isolated Z1-C domain (Corynebacterium glutamicum ATCC 13032); assay: SEC; gel filtration of single proteins and domains, Superdex 200 HR, room temperature, 20 mM Tris-HCl pH 8.0, 300 mM NaCl, 5 mM 2-mercaptoethanol; 20 μM (monomer) loading concentration
[8] = molecular target: R.NgoAVII (Neisseria gonorrhoeae FA1090); assay: SAXS; full-length R- and N-proteins in 20 mM Tris-HCl pH 8.0, 400 mM KCl, 0.1 mM EDTA, 1 mM DTT; molecular weight from scattering data (MoW)
[9] = molecular target: R.NgoAVII (Neisseria gonorrhoeae FA1090); assay: SEC; gel filtration of single proteins and domains, Superdex 200 HR, room temperature, 20 mM Tris-HCl pH 8.0, 300 mM NaCl, 5 mM 2-mercaptoethanol; 20 μM (monomer) loading concentration
[10] = molecular target: N.CglI-DEAD-Z1 domain (Corynebacterium glutamicum ATCC 13032); assay: as above
[11] = molecular target: R.CglI (containing a StrepII-tag), co-expressed with N.CglI (Corynebacterium glutamicum ATCC 13032); assay: SEC + other: SAXS; purified co-expressed RN.CglI complex; molecular weight close to the sum of the R.CglI and N.CglI dimers
[12] = molecular target: N.CglI (containing a His6-tag), co-expressed with R.CglI (Corynebacterium glutamicum ATCC 13032); assay: as above
[13] = molecular target: R.CglI (containing a StrepII-tag), co-expressed with N.CglI (Corynebacterium glutamicum ATCC 13032); assay: densitometry of SDS-PAGE; purified RN.CglI complex resolved by SDS/PAGE, molar ratio of the two bands
[14] = molecular target: R.CglI (Corynebacterium glutamicum ATCC 13032); assay: SAXS; full-length R- and N-proteins in 20 mM Tris-HCl pH 8.0, 400 mM KCl, 0.1 mM EDTA, 1 mM DTT; molecular weight from scattering data (MoW)
[15] = molecular target: R.CglI (Corynebacterium glutamicum ATCC 13032); assay: SEC; gel filtration of single proteins and domains, Superdex 200 HR, room temperature, 20 mM Tris-HCl pH 8.0, 300 mM NaCl, 5 mM 2-mercaptoethanol; 20 μM (monomer) loading concentration
[16] = molecular target: the molecule itself; assay: as above

Molecule: N.CglI (enzyme)
- stoichiometry N [1]: 2
- stoichiometry N [2]: 2
- ATP hydrolysis rate of N.CglI at saturating ATP (4 mM) and optimal concentrations of DNA and R.CglI (malachite green assay) [3]: 176 ATP/s

Molecule: N.CglI isolated Z1 domain (domain or fragment)
- stoichiometry N [4]: 2

Molecule: TACAATCGATAATAGCCGCCGTGCGAGCCCATT (double strand) [33 bp cognate duplex]
- Kd [5]: 1.9 nM
- Kd [6]: 9.2 nM

Molecule: N.CglI isolated Z1-C domain (domain or fragment)
- stoichiometry N [7]: 2

Molecule: R.NgoAVII (enzyme)
- stoichiometry N [8]: 2
- stoichiometry N [9]: 2

Molecule: N.CglI-DEAD-Z1 domain (domain or fragment)
- stoichiometry N [10]: 2

Molecule: R.CglI (containing a StrepII-tag), co-expressed with N.CglI (enzyme)
- stoichiometry N [11]: 2

Molecule: N.CglI (containing a His6-tag), co-expressed with R.CglI (enzyme)
- stoichiometry N (N.CglI per R.CglI (2:2)) [11]: 1
- stoichiometry N [12]: 2
- stoichiometry N (N.CglI per R.CglI) [13]: 0.75

Molecule: R.CglI (enzyme)
- stoichiometry N [14]: 2
- stoichiometry N [15]: 2

B1: R.CglI isolated PLD domain (domain or fragment)
chain: PLDKFFDKELKDTHHLDITVGYISEKSLQYLLLIAGTHPDLTITLTCGMHAREGMTAAQLHHARVLHDYLSDHDRGGVFVIPRLRYHGKIYLFHKNQHTDPIAYIGSANLSAIVPGYTSTFETGVILDPAPEDLVLH
- stoichiometry N [16]: 2
